Numbering of substitutions follows the chain as printed. Names and notes keep the numbering of the source.
B1: EC hydrolase (ethyl carbamate hydrolase) (Lysinibacillus fusiformis; H68A/K70R/S325N) (protein)
chain: MTTDLHLKSVEELAPLLASKSLSPVELTKAILDFAEESQPKINSYMAFYREEALARAKEVEQEILQGAYRGMYHGIPMALKDNLYFKDKITTMSSKIHKDFVSDYDATVVEKLRDAGVIFTGKLSMHEYAWGITNNNPHYGPVRNPWDLDKIPGGSSGGSGAAVAAGASVASLGTDTAGSIRIPSSACGIVGLKPTHGRVSKYGCYPLAWSLDHIGPMTKTVKDAAGLLEVIAGFDHQDPTCVNVPVDNYEKQLTGNIKDLVIGINEEYFFNNVDADVEKAVRASIQSLVDSGAKVEVVRIPSLQYAEWAELVTSLSEAAAIHHNDLQKRPQDFGDDIRLLFELGELPSAVDYLQAQQVRRQIKQEFTEIFNKVDVLISPTLPIVASTIGDDFAELNGQKVDLIDNIIRFTGPSNLTGLPALSVPCGFKGNLPIGLQIIGPAFKEGRILNVGYAVEQANPQRNRKPNIFANI
B2: EC hydrolase (ethyl carbamate hydrolase) (Lysinibacillus fusiformis; K70R/S325N) (protein)
chain: B1 chain with A68H
B3: EC hydrolase (ethyl carbamate hydrolase) (Lysinibacillus fusiformis; H68A/S325N) (protein)
chain: B1 chain with R70K
B4: EC hydrolase (ethyl carbamate hydrolase) (Lysinibacillus fusiformis; K70R) (protein)
chain: B1 chain with A68H, N325S
B5: EC hydrolase (ethyl carbamate hydrolase) (Lysinibacillus fusiformis; H68A) (protein)
chain: B1 chain with R70K, N325S
B6: EC hydrolase (ethyl carbamate hydrolase) (Lysinibacillus fusiformis; S325N) (protein)
chain: B1 chain with A68H, R70K
B7: EC hydrolase (ethyl carbamate hydrolase) (Lysinibacillus fusiformis) (protein)
chain: B1 chain with A68H, R70K, N325S
B8: EC hydrolase (ethyl carbamate hydrolase) (Lysinibacillus fusiformis; A178L) (protein)
chain: B1 chain with A68H, R70K, A178L, N325S

These proteins were tested on CCOC(N)=O (assay: purified protein). Conditions: free enzyme, EC 0-300 mM, activity assay at 37 °C, pH not stated.
Format: biochemical, Lysinibacillus fusiformis
B1 was tested, and the Km was 28.2 ± 4.41 mM. B2 gave a Km of 40.82 ± 3.56 mM. With B3 the Km was 33.27 ± 2.31 mM. For B4, the Km was 33.38 ± 5.67 mM. B5 gave a Km of 31.38 ± 5.61 mM. With B6 the Km was 45.52 ± 9.41 mM. For B7, the Km was 37.67 ± 3.55 mM. Work on B8 yielded a Km of 96.78 ± 6.09 mM.

From paper PMC10017909, “Improving ethanol tolerance of ethyl carbamate hydrolase by diphasic high pressure molecular dynamic simulations” (AMB Express, 2023)
